In publication PMC5137447:

Tests used:
[1] = target: T1, influenza A virus RNA polymerase (RNAP; PB1-PB2-PA) (Influenza A virus A/NorthernTerritories/60/68 (H3N2)) (UniProt Q910D6+Q91MB1+P03433); assay: fluorescence anisotropy
[2] = target: T1, influenza A virus RNA polymerase (RNAP; PB1-PB2-PA) (Influenza A virus A/NorthernTerritories/60/68 (H3N2)); assay: smFRET titration

Sequence	Kd [1] [nM]	Kd [2] [nM]
UAAACUCCUUGUUUCUACU [3' cRNA]	> 1000	
AGCGAAAGCAGGAGUUU / UAAACUCCUUGUUUCUACU [cRNA promoter 5U17/3U4]		13
AGCGAAAGCAGGAGUUU [5' cRNA]	44	
